Values belong to the molecule of their own block, whether it stands above or below them.
Legend:
Format in all cases: binding
SEZ6L2 = target: T1, SEZ6L2 (Homo sapiens, UniProt Q6UXD5, INS830AYEELLDNRKLEV); assay: ELISA cross reactivity to family member SEZ6L2; set-up: key to binds SEZ6 family member SEZ6L2 (dagger): *: antibodies that bind SEZ6 family members SEZ6L and SEZ6L2 are designated with an asterisk and/or a dagger, respectively; †: antibodies that bind SEZ6 family members SEZ6L and SEZ6L2 are designated with an asterisk and/or a dagger, respectively
T1 construct: IgK signal peptide (N, cleaved yes); made in house; host or cells: HEK-293T or CHO-S
T1 sequence (Q6UXD5 with tags, fused parts or gaps with the stated changes): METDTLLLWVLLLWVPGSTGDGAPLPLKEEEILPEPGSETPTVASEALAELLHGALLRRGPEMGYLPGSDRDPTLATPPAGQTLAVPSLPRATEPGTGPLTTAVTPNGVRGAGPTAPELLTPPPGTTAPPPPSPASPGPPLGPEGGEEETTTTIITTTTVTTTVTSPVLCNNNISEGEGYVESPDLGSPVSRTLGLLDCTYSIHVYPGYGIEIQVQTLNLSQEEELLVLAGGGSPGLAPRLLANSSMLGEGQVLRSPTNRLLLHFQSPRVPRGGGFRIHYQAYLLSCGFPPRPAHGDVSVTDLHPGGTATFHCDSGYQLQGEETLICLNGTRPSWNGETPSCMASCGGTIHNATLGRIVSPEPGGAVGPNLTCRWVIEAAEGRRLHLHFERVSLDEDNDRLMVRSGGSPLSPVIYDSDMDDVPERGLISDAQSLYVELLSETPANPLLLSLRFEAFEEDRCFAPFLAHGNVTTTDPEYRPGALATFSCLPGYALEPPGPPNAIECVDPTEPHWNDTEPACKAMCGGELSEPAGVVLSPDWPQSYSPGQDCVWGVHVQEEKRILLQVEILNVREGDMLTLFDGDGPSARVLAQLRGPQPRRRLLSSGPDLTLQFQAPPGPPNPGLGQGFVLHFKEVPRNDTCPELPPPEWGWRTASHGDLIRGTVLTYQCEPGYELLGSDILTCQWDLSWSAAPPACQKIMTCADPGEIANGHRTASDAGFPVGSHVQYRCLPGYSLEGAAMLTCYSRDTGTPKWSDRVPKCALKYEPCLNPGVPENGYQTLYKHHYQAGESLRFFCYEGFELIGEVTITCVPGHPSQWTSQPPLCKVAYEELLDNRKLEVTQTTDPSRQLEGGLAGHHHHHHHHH
Description: To determine cross reactivity to family member proteins, SEZ6L and SEZ6L2, an ELISA-based assay was used. Plates were coated with SEZ6, SEZ6L, or SEZ6L2 proteins at 0.2 μg/mL in PBS overnight. After washing with PBS containing 0.05% (v/v) Tween 20 (PBST), the wells were blocked with 2% (w/v) BSA in PBS (PBSA), 100 μL/well for 1 hour at room temperature. Antibody was then added at 1 μg/mL in 100 μL PBSA for 1 hour at room temperature. After washing with PBST, 100 μL/well HRP-labeled goat anti-mouse IgG diluted 1:2,000 in PBSA for 1 hour at room temperature. The plates were washed and 100 μL/well of the TMB substrate solution (Thermo Scientific 34028) was added for 15 minutes at room temperature. After developing, an equal volume of 2M H2SO4 was added to stop substrate development and analyzed by spectrophotometer at OD 450. […] As discussed above, such pan-SEZ6 antibodies are compatible with the teachings herein and may be used in conjunction with the disclosed methods.

rat SEZ6 = assay: Flow cytometry cross reactivity, RIN-m5F cells; settings: 5 μg/mL antibody
rat SEZ6, sequence (as listed by the source): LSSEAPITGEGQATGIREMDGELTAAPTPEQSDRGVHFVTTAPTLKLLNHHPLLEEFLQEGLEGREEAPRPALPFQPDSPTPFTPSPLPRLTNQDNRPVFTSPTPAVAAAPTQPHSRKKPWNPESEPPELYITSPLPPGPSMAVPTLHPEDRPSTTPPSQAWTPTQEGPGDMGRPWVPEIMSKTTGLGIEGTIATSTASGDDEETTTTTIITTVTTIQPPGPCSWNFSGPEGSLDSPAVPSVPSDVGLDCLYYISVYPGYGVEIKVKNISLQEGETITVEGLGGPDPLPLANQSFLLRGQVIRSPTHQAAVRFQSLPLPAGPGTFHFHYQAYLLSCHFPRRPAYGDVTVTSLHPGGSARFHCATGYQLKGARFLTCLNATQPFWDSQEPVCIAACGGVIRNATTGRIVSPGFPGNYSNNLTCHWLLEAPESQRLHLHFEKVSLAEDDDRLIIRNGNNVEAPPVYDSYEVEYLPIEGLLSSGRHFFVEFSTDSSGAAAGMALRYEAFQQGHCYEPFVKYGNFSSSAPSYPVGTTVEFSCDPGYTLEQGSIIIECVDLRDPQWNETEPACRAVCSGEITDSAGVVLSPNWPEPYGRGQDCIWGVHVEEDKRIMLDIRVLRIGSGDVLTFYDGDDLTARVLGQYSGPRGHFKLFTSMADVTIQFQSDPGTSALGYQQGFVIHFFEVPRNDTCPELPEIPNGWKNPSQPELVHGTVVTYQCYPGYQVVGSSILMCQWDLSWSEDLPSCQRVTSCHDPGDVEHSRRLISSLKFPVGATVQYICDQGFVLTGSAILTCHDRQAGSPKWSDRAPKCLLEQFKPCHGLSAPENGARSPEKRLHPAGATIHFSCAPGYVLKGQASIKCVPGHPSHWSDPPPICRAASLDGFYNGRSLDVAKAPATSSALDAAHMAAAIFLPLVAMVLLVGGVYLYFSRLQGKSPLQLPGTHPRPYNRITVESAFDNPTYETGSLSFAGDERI
Description: (§1) In this regard flow cytometry was performed using a FACSCanto II as per the manufacturer's instructions in order to confirm that selected SC17 antibody modulators can immunospecifically associate with human SEZ6 and to determine whether the same modulators cross-react with cynomolgus, rat and/or murine SEZ6 in addition to SEZ6L and SEZ6L2. More particularly modulators were tested for cross reactivity to murine SEZ6 and rat SEZ6 by flow cytometry against Neuro2a (ATCC Cat # CCL131), and RIN-m5F (ATCC cat # CRL-11605) cell lines which express mouse SEZ6 and rat SEZ6, respectively. For examining cross reactivity to cynomolgus SEZ6, yeast displaying the extracellular domain of cynomolgus SEZ6 (Boder et al, 1997) were used for flow cytometry analysis.
(§2) Briefly 1×10^5 cells per well of Neuro2a, RIN-5mF, or yeast displaying cynomolgus SEZ6 cells were incubated for 30 minutes with 50 μL PBS (2% FCS) buffer with 5 μg/mL antibody. Cells were washed twice with the same buffer and then incubated with 50 μL per sample DyLight 649 labeled goat-anti-mouse IgG, Fc fragment specific secondary diluted 1:200 in PBS buffer. After incubating for 15 minutes cells were washed twice with the PBS buffer and re-suspended in the same with DAPI for flow cytometry analysis of Neuro2a and Rin-m5F or buffer without DAPI for flow cytometric analysis of yeast cells with cSEZ6.

SEZ6 ECD = target: T2, SEZ6 ECD (Homo sapiens, UniProt Q53EL9); assay: Fine epitope mapping (phage display peptide library or yeast-displayed SEZ6 ECD mutants); settings: epitope conformational (discontinuous) or linear
T2 construct: SEZ6 extracellular domain (amino acids 1-904); expressed in transfected cells; host or cells: yeast (surface display, Cochran et al. protocol)
Description: Epitopes were classified either as conformational (i.e. discontinuous) or linear. Yeast displaying the SEZ6 ECD construct was heat treated for 30 minutes at 80° C. in order to denature the antigen, washed twice in ice-cold PBSA and then subjected to the same staining protocol and flow cytometry analysis as described above. Antibodies that bound to both the denatured and native yeast were classified as binding to a linear epitope, whereas antibodies that bound native yeast but not denatured yeast were classified as conformationally specific.
Fine epitope mapping was further performed on selected antibodies to determine the specific amino acids to which they bound. Antibodies that bound to a linear epitope were mapped using the Ph.D.-12 phage display peptide library kit (New England Biolabs E8110S). The antibody selected for epitope mapping was coated onto a Nunc MaxiSorp tube (Nunc) at 50 μg/mL in 3 mL 0.1 M sodium bicarbonate solution, pH 8 and incubated overnight. The tube was blocked with 3% BSA solution in bicarbonate solution. Then, 10^11 input phage in PBS+0.1% Tween-20 was allowed to bind, followed by ten consecutive washes with 0.1% Tween-20 to wash away non-binding phage. Remaining phage were eluted with 1 mL 0.2 M glycine for 10 minutes at room temperature with gentle agitation, followed by neutralization with 150 μL 1 M Tris-HCl pH 9. Eluted phage were amplified and panned again with 10^11 input phage, using 0.5% Tween-20 during the wash steps to increase selection stringency. DNA from 24 plaques of the eluted phage from the second round was isolated using the Qiaprep M13 Spin kit (Qiagen) and sequenced. Binding of clonal phage was confirmed using an ELISA assay, where the mapped antibody or a control antibody was coated onto an ELISA plate, blocked, and exposed to each clone phage. Phage binding was detected using horseradish peroxidase conjugated anti-M13 antibody (GE Healthcare), and the 1-Step Turbo TMB ELISA solution (Pierce). Phage peptide sequences from specifically binding phage were aligned using Vector NTI (Life Technologies) against the antigen ECD peptide sequence to determine the epitope of binding.
Selected antibodies that bound to a discontinuous epitope were mapped using the technique described by Chao et al. (2007). Libraries of SEZ6 ECD mutants were generated with error prone PCR using nucleotide analogues 8-oxo-2′deoxyguanosine-5′-triphosphate and 2′-deoxy-p-nucleoside-5′triphosphate (both from TriLink Bio) for a target mutagenesis rate of one amino acid mutation per clone. These were transformed into a yeast display format. Using the technique described above for domain-level mapping, the library was stained for c-myc and antibody binding at 50 nM. […] These clones were re-grown, and subjected to another round of FACS sorting for loss of binding to the target antibody. Using the Zymoprep Yeast Plasmid Miniprep kit (Zymo Research), individual ECD clones were isolated and sequenced. Where necessary, mutations were reformatted as single-mutant ECD clones using the Quikchange site directed mutagenesis kit (Agilent).
Individual ECD clones were next screened to determine whether loss of binding was due to a mutation in the epitope, or a mutation that caused misfolding. Mutations that involved cysteine, proline, and stop codons were automatically discarded due to the high likelihood of a misfolding mutation. Remaining ECD clones were then screened for binding to a non-competing, conformationally specific antibody. ECD clones that lost binding to non-competing, conformationally specific antibodies were concluded to contain misfolding mutations, whereas ECD clones that retained equivalent binding as wild type SEZ6 ECD were concluded to be properly folded. Mutations in the ECD clones in the latter group were concluded to be in the epitope. […]

cynomolgus SEZ6 = assay: Flow cytometry cross reactivity, yeast displaying extracellular domain of cynomolgus SEZ6; settings: 5 μg/mL antibody
Description: as §1, §2

[1] = target: T3, human recombinant SEZ6-His (Homo sapiens, UniProt Q53EL9); assay: Affinity by bio-layer interferometry (ForteBio RED) or surface plasmon resonance (Biacore 2000); settings: surface plasmon resonance
T3 construct: The cDNA fragment encoding the ECD of SEZ6 was amplified from the hSEZ6 cDNA clone; IgK signal peptide (N, cleaved yes); made in house; host or cells: HEK-293T and/or CHO-S
Description: Various methods were used to analyze the binding and immunochemical characteristics of selected SEZ6 modulators generated as set forth above. Specifically, a number of the antibody modulators were characterized as to affinity, binning, and cross reactivity with regard to human, cynomolgus, rat and mouse SEZ6 antigen along with SEZ6L and SEZ6L2 proteins by art-recognized methods including flow cytometry. Affinities and kinetic constants kon and koff of the selected modulators were measured using bio-layer interferometry analysis on a ForteBio RED (ForteBio, Inc.) or surface plasmon resonance using a Biacore 2000 each according to the manufacturer's instructions.
To verify the cross reactivity data above for rat SEZ6 and to determine the affinity and kinetic constants kon and koff of the selected effectors, either bio-layer interferometry analysis on a ForteBio RED (ForteBio, Inc.) or surface plasmon resonance on a Biacore 2000 (GE Healthcare) were conducted. Affinities were determined to both human recombinant SEZ6-His and rat recombinant SEZ6-His generated in Example 5.
Binding characteristics of the following humanized constructs from Example 8, hSC17.16, hSC17.17, hSC17.24, hSC17.28, hSC17.34 and hSC17.46, were analyzed in order to determine whether the CDR grafting process had appreciably altered their binding characteristics. The humanized constructs (CDR grafted) were compared with “traditional” chimeric antibodies comprising the murine parent (or donor) heavy and light chain variable domains and a human constant region substantially equivalent to that used in the humanized constructs. With these constructs surface plasmon resonance was conducted using a Biacore 2000 (GE Healthcare) to identify any subtle changes in rate constants brought about by the humanization process.

B3: hSC17.17: humanized (CDR grafted) anti-SEZ6 antibody derived from SC17.17 (antibody, V domains shown)
VH: QVQLVQSGAEVKKPGASVKVSCKASGYTFTDYNMHWVRQAPGQGLEWMGEINPNIGGTGYNQKFKGRVTMTRDTSISTAYMELSRLRSDDTAVYYCARTYSYYSYEFAYWGQGTLVTVSS
VL: EIVLTQSPATLSLSPGERATLSCSASSSVSYMHWYQQKPGQAPRLLIYDTSKLPSGIPARFSGSGSGTDFTLTISSLEPEDFAVYYCQQWSSTPPTFGQGTKLEIK
modifications: Humanized hSC17.17 VH; Humanized hSC17.17 VL
binding affinity compared with corresponding murine or chimeric antibody [1]: equivalent or better than the corresponding murine antibodies

B4: SC17.36: murine anti-SEZ6 antibody (antibody, V domains shown)
VH: EVQLQESGPSLVKPSQSQSLTCSVTGDSITSDYWNWIRKFPGKKVEYMGYINYSGSTYYNPSLKSRISITRDTSKNQYYLQLNSVTSEDTATYYCARTSYYNKFLPFAYWGQGTLVTVSA
VL: QIVLTQSPALMSASPGEKVTMTCSASSSVSYMYWYQQKPRSSPKPWIYLTSNLASGVPARFSGSGSGTSYSLTISSMEAEDAATYYCQQWSSNPPTFGGGTKLEIK
modifications: Murine SC17.36 VH; Murine SC17.36 VL
notes: murine anti-SEZ6 antibody
Discontinuous (SEZ6 ECD): Yes
cross reactivity to cynomolgus SEZ6 (cynomolgus SEZ6): cross reactive

B5: hSC17.16: humanized (CDR grafted) anti-SEZ6 antibody derived from SC17.16 (antibody, V domains shown)
VH: QVQLVQSGAEVKKPGASVKVSCKASGYTFTDYNMYWVRQAPGQGLEWMGEINPNNGGTAYNQKFRGKVTMTRDTSISTAYMELSRLRSDDTAVYYCARYDKGFDYWGQGTTVTVSS
VL: DIQMTQSPSSLSASVGDRVTITCRASANINSNLVWYQQKPGKAPKLLIYAATNLADGVPSRFSGSGSGTDFTLTISSLQPEDFATYYCQHFWGTPRTFGGGTKLEIK
modifications: Humanized hSC17.16 VH; Humanized hSC17.16 VL
binding affinity compared with corresponding murine or chimeric antibody [1]: equivalent or better than the corresponding murine antibodies

B6: SC17.45: murine anti-SEZ6 antibody (antibody, V domains shown)
VH: QVQLQQPGSVLVRPGDSVKLSCKASGYTFTSYWMHWVKQSPGQGLEWIGEIHPHSGSTNYNEKFKGKATLTVDTSSSTAYVDLSSLTSEDSAVYYCVGGHYDYWGQGTTLTVSS
VL: ENVLTQSPAIMSASPGEKVTMTCSASSSVNYMYWYQQKSSTSPKLWIYDTSKLTSGVPGRFSGSGSGNSYSLTISNMEAEDVATYYCFQGSGYPLTFGSGTKLEIK
modifications: Murine SC17.45 VH; Murine SC17.45 VL
notes: murine anti-SEZ6 antibody
cross reactivity to cynomolgus SEZ6 (cynomolgus SEZ6): cross reactive

More lines, main results first:

cross reactivity with SEZ6L2 (SEZ6L2; ELISA, antibody 1 μg/mL): cross-reactive
B1: SC17.28: murine anti-SEZ6 antibody (antibody, V domains shown)
VH: QVHLPQSRPELVKPGASVKISCKASGYGFTRSYIHWVKQRPGQGLEWIGYISSGSGGTTYNQKFKGKASLTADNPSSTAYMHLSSLTSEDSAIYFCARGGVRYFDVWGAGTTVTVSS
VL: DILLTQSPAILSVSPGEGVSFSCRASQSIGTSIHWYQQRTNGSPRLLIKYASESISGIPSRFSGSGSGTDFTLRINSLESEDIADYYCQQSNSWPLTFGAGTKLELK
modifications: Murine SC17.28 VH; Murine SC17.28 VL
notes: murine anti-SEZ6 antibody
binds SEZ6 family member SEZ6L2 (dagger) (SEZ6L2; mark in Table 5): SC17.6^†, SC17.28^†, SC17.103, SC17.109, SC17.119,
cross reactivity to rat SEZ6 (rat SEZ6): cross reactive

Discontinuous (SEZ6 ECD): Yes
B2: SC17.17: murine anti-SEZ6 antibody (antibody, V domains shown)
VH: EVQLQQSGPEVMKPGASVKMSCKASGYTFTDYNMHWVKQNQGKSLEWIGEINPNIGGTGYNQKFKGKATLTVHKSSSTAYMELRSLTSEDSAVYYCARTYSYYSYEFAYWGQGTLVTVSA
VL: QIVLTQSPAIMSASPGEKVTMTCSASSSVSYMHWYQQKSGTSPKRWIYDTSKLPSGVPARFSGSGSGTSYSLTISSMEAEDAATYYCQQWSSTPPTFGAGTKLELK
modifications: Murine SC17.17 VH; Murine SC17.17 VL
notes: murine anti-SEZ6 antibody
cross reactivity to cynomolgus SEZ6 (cynomolgus SEZ6): cross reactive
cross reactivity to rat SEZ6 (rat SEZ6): cross reactive

Reference: patent US9993566B2, “SEZ6 modulators and methods of use” (AbbVie Stemcentrx LLC, priority 2013, dated 2018)
